Assays:
[1] = molecular target: T1, cynomolgus 4-1BB on CHO cells (cynomolgus, UniProt A9YYE7 24-254); experiment: flow cytometry, Flp-In-CHO::cyno4-1BB cells
T1 construct: also called Flp-In-CHO::cyno4-1BB; cynomolgus 4-1BB-expressing CHO cells
Experimental: (§1) CHO cells were stably transfected with human 4-1BB, cynomolgus 4-1BB, or a mock control using the Flp-In system (Life Technologies) according to the manufacturer's instructions. Transfected CHO cells were maintained in Ham's F12 medium (Life Technologies) supplemented with 10% Fetal Calf Serum (Biochrom) and 500 μg/ml Hygromycin B (Roth). Cells were cultured in cell culture flasks according to manufacturer's instruction (37° C., 5% CO₂ atmosphere).
(§2) 5×10⁴ cells per well were incubated for 1 h in ice-cold PBS containing 5% fetal calf serum (PBS-FCS). A dilution series of the tested multimeric proteins (SEQ ID NOs: 38-44 and 46-55), the 4-1BB-targeting lipocalin mutein as included in the multimeric proteins (SEQ ID NO: 64) or the GPC3-targeting lipocalin SEQ ID NO: 90 were added to the cells and incubated for 1 h on ice. Cells were washed twice with PBS and then incubated with a rabbit anti-NGAL or a goat anti-human IgG labeled with fluorescent dye Alexa 488 for 30 min on ice. Human IgG4 isotype (SEQ ID NOs: 29 and 30) and lipocalin mutein SEQ ID NO: 8 were tested as a negative control. Cells were subsequently washed and analyzed using iQue Flow cytometer (Intellicyte Screener). Mean geometric fluorescent signals were plotted and fitted with Graphpad software using nonlinear regression (shared bottom, four parameters, variable slope).

hu4-1BB-Fc (R&D Systems) = molecular target: T2, hu4-1BB-Fc (R&D Systems) (human, UniProt Q07011 24-186); experiment: SPR (Biacore 8K), hu4-1BB-Fc captured by anti-human IgG Fc; apparent value, 1:1 fit
T2 construct: Bought; also called human 4-1BB; not shown: human IgG Fc of the bought fusion
Experimental: The anti-human IgG Fc antibody (GE Healthcare) was immobilized on a CM5 sensor chip using standard amine chemistry: the carboxyl groups on the chip were activated using 1-ethyl-3-(3-dimethylaminopropyl)-carbodiimide (EDC) and N-hydroxysuccinimide (NHS). Subsequently, anti-human IgG Fc antibody solution (GE Healthcare) at a concentration of 25 μg/mL in 10 mM sodium acetate (pH 5.0) was applied at a flow rate of 5 μL/min until an immobilization level of 4000-10000 resonance units (RU) was achieved. Residual non-reacted NHS-esters were blocked by passing a solution of 1 M ethanolamine across the surface. The reference channel was treated in an analogous manner. Subsequently, hu4-1BB-Fc (R&D Systems) at 0.3 μg/mL was captured by the anti-human IgG-Fc antibody at the chip surface for 180 s at a flow rate of 10 μL/min.
The binding assay was carried out with a contact time of 180 s, a dissociation time of 1200 s or 3000 s and a flow rate of 30 μL/min. All measurements were performed at 25° C. Lipocalin mutein SEQ ID NO: 64 as included in the multimeric proteins was also tested as […]. […] Prior to the protein measurements, three startup cycles were performed for conditioning purposes. Data were evaluated with Biacore Evaluation software. Double referencing was used and the 1:1 binding model was used to fit the raw data.

human 4-1BB on cells [2] = molecular target: T3, human 4-1BB on cells (human, UniProt Q07011 24-255); experiment: flow cytometry, Flp-In-CHO::hu4-1BB cells
T3 construct: whole, on cells; Stably transfected CHO cells (flow cytometry) and bought Jurkat reporter cells (bioassay); also called Flp-In-CHO::hu4-1BB; human 4-1BB-expressing CHO cells
Experimental: as §1, §2

human 4-1BB on cells [3] = molecular target: T3, human 4-1BB on cells; experiment: cell-based or functional assay
[4] = molecular target: T4, recombinant hu4-1BB-His (human 4-1BB with a C-terminal polyhistidine tag, R&D Systems) (human, UniProt Q07011 24-186); experiment: ELISA, hu4-1BB-His coated, detection anti-NGAL-HRP
T4 construct: Bought; not shown: C-terminal polyhistidine tag
Experimental: Recombinant hu4-1BB-His (human 4-1BB with a C-terminal polyhistidine tag, R&D Systems) at the concentration of 1 μg/mL in PBS was coated overnight on microtiter plates at 4° C. After washing with PBS-0.05% T (PBS supplemented with 0.05% (v/v) Tween 20), the plates were blocked with 2% BSA (w/v) in PBS-0.1% T (PBS supplemented with 0.1% (v/v) Tween 20) for 1 h at room temperature. After washing with 100 μL PBS-0.05% T five times, exemplary multimeric proteins (SEQ ID NOs: 38-44 and 46-53) or 4-1BB-specific lipocalin mutein as included in the multimeric protein (SEQ ID NO: 64) at different concentrations, ranging from 100 to 0.002 nM, were added to the wells and incubated for 1 h at room temperature, followed by another wash step. Bound molecules under study were detected by incubation with 1:1000 diluted anti-NGAL-HRP in PBS-0.1% T-2% BSA. After an additional wash step, fluorogenic HRP substrate (QuantaBlu, Thermo) was added to each well and the fluorescence intensity was detected using a fluorescence microplate reader.
The results of exemplary experiments are depicted in FIG. 2, together with the fit curves resulting from a 1:1 binding sigmoidal fit, where the EC₅₀ value and the maximum signal were free parameters, and the slope was fixed to one. The observed EC₅₀ values toward the hu4-1BB of all tested multimeric proteins were in the sub nanomolar range.

T3 sequence (Q07011 24-255): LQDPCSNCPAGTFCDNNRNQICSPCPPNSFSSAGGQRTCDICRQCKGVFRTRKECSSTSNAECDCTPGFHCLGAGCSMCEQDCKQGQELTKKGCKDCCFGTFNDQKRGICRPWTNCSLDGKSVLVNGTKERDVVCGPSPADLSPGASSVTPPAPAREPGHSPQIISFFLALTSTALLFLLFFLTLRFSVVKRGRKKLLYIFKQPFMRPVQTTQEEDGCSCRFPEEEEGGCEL
T1 sequence (A9YYE7 entry or part of it limits assumed): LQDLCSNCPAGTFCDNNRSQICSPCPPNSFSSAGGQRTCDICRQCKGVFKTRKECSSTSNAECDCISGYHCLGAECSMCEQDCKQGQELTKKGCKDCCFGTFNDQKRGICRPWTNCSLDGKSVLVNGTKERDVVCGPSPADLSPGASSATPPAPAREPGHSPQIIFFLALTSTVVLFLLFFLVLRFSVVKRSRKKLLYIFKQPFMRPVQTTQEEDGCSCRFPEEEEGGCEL

Binder	EC50 [1]	Kd (hu4-1BB-Fc (R&D Systems))	koff (hu4-1BB-Fc (R&D Systems))	kon (hu4-1BB-Fc (R&D Systems))	EC50 (human 4-1BB on cells [2])	EC50 [nM], 4-1BB bioassay (NFκB-luc2/4-1BB Jurkat luminescence), with HepG2 cells (human 4-1BB on cells [3])	EC50 [4]
multimeric protein SEQ ID NO: 48 (designed binder) QDSTSDLIPAPPLSKVPLQQNFQDNQFHGKWYVVGQAGNIRLREDKDPIKMMATIYELKEDKSYDVTMVKFDDKKCMYDIWTFVPGSQPGEFTLGKIKSFPGHTSSLVRVVSTNYNQHAMVFFKFVFQNREEFYITLYGRTKELTSELKENFIRFSKSLGLPENHIVFPVPIDQCIDGGGGGSGGGGSGGGGSGVRLWATRQAMLGQVHEVPEGWLIFVAEQEELYVRVQNGFRKVQLEARTPLGGGGSGGGGSGGGGSQDSTSDLIPAPPLSKVPLQQNFQDNQFHGKWYVVGQAGNIRLREDKDPIKMMATIYELKEDKSYDVTMVKFDDKKCMYDIWTFVPGSQPGEFTLGKIKSFPGHTSSLVRVVSTNYNQHAMVFFKFVFQNREEFYITLYGRTKELTSELKENFIRFSKSLGLPENHIVFPVPIDQCIDGGGSGGAPEQKLISEEDLGSHHHHHHHHHH	2.83 nM	0.34 nM	2.76e-05 s⁻¹	81600 M⁻¹ s⁻¹	2.98 nM	0.82 nM	0.1 nM
multimeric protein SEQ ID NO: 49 (designed binder) QDSTSDLIPAPPLSKVPLQQNFQDNQFHGKWYVVGQAGNIRLREDKDPIKMMATIYELKEDKSYDVTMVKFDDKKCMYDIWTFVPGSQPGEFTLGKIKSFPGHTSSLVRVVSTNYNQHAMVFFKFVFQNREEFYITLYGRTKELTSELKENFIRFSKSLGLPENHIVFPVPIDQCIDGGGGGSGVRLWATRQAMLGQVHEVPEGWLIFVAEQEELYVRVQNGFRKVQLEARTPLGGGGSGGGGSGGGGSQDSTSDLIPAPPLSKVPLQQNFQDNQFHGKWYVVGQAGNIRLREDKDPIKMMATIYELKEDKSYDVTMVKFDDKKCMYDIWTFVPGSQPGEFTLGKIKSFPGHTSSLVRVVSTNYNQHAMVFFKFVFQNREEFYITLYGRTKELTSELKENFIRFSKSLGLPENHIVFPVPIDQCIDGGGSGGAPEQKLISEEDLGSHHHHHHHHHH	2.75 nM	0.21 nM	1.91e-05 s⁻¹	90200 M⁻¹ s⁻¹	4.99 nM	0.9 nM	0.13 nM
multimeric protein SEQ ID NO: 38 (designed binder, Trivalent; Self-assembled from its monomer polypeptides) QDSTSDLIPAPPLSKVPLQQNFQDNQFHGKWYVVGQAGNIRLREDKDPIKMMATIYELKEDKSYDVTMVKFDDKKCMYDIWTFVPGSQPGEFTLGKIKSFPGHTSSLVRVVSTNYNQHAMVFFKFVFQNREEFYITLYGRTKELTSELKENFIRFSKSLGLPENHIVFPVPIDQCIDGGGGGSGGGGSGGGGSGVRLWATRQAMLGQVHEVPEGWLIFVAEQEELYVRVQNGFRKVQLEARTPLGGSGGAPEQKLISEEDLGSHHHHHHHHHH	5.92 nM	0.25 nM	2.22e-05 s⁻¹	89200 M⁻¹ s⁻¹	4.89 nM	–	0.16 nM
multimeric protein SEQ ID NO: 39 (designed binder) QDSTSDLIPAPPLSKVPLQQNFQDNQFHGKWYVVGQAGNIRLREDKDPIKMMATIYELKEDKSYDVTMVKFDDKKCMYDIWTFVPGSQPGEFTLGKIKSFPGHTSSLVRVVSTNYNQHAMVFFKFVFQNREEFYITLYGRTKELTSELKENFIRFSKSLGLPENHIVFPVPIDQCIDGGGGGSGVRLWATRQAMLGQVHEVPEGWLIFVAEQEELYVRVQNGFRKVQLEARTPLGGSGGAPEQKLISEEDLGSHHHHHHHHHH	3.68 nM	0.38 nM	2.63e-05 s⁻¹	68800 M⁻¹ s⁻¹	5.87 nM	–	0.24 nM
multimeric protein SEQ ID NO: 41 (designed binder) QDSTSDLIPAPPLSKVPLQQNFQDNQFHGKWYVVGQAGNIRLREDKDPIKMMATIYELKEDKSYDVTMVKFDDKKCMYDIWTFVPGSQPGEFTLGKIKSFPGHTSSLVRVVSTNYNQHAMVFFKFVFQNREEFYITLYGRTKELTSELKENFIRFSKSLGLPENHIVFPVPIDQCIDGGSPTPTPTTPTPTPTGVRLWATRQAMLGQVHEVPEGWLIFVAEQEELYVRVQNGFRKVQLEARTPLGGSGGAPEQKLISEEDLGSHHHHHHHHHH	5.63 nM	0.31 nM	2.07e-05 s⁻¹	66200 M⁻¹ s⁻¹	7.37 nM	–	0.19 nM
multimeric protein SEQ ID NO: 42 (designed binder) QDSTSDLIPAPPLSKVPLQQNFQDNQFHGKWYVVGQAGNIRLREDKDPIKMMATIYELKEDKSYDVTMVKFDDKKCMYDIWTFVPGSQPGEFTLGKIKSFPGHTSSLVRVVSTNYNQHAMVFFKFVFQNREEFYITLYGRTKELTSELKENFIRFSKSLGLPENHIVFPVPIDQCIDGAEAAAKEAAAKEAAAKAGVRLWATRQAMLGQVHEVPEGWLIFVAEQEELYVRVQNGFRKVQLEARTPLGGSGGAPEQKLISEEDLGSHHHHHHHHHH	6.59 nM	0.28 nM	1.74e-05 s⁻¹	61300 M⁻¹ s⁻¹	8.5 nM	–	0.26 nM
multimeric protein SEQ ID NO: 44 (designed binder) GVRLWATRQAMLGQVHEVPEGWLIFVAEQEELYVRVQNGFRKVQLEARTPLGGGGSQDSTSDLIPAPPLSKVPLQQNFQDNQFHGKWYVVGQAGNIRLREDKDPIKMMATIYELKEDKSYDVTMVKFDDKKCMYDIWTFVPGSQPGEFTLGKIKSFPGHTSSLVRVVSTNYNQHAMVFFKFVFQNREEFYITLYGRTKELTSELKENFIRFSKSLGLPENHIVFPVPIDQCIDGGGSGGAPEQKLISEEDLGSHHHHHHHHHH	5.03 nM	0.24 nM	2.07e-05 s⁻¹	87500 M⁻¹ s⁻¹	6.64 nM	–	0.22 nM
multimeric protein SEQ ID NO: 47 (designed binder) QDSTSDLIPAPPLSKVPLQQNFQDNQFHGKWYVVGQAGNIRLREDKDPIKMMATIYELKEDKSYDVTMVKFDDKKCMYDIWTFVPGSQPGEFTLGKIKSFPGHTSSLVRVVSTNYNQHAMVFFKFVFQNREEFYITLYGRTKELTSELKENFIRFSKSLGLPENHIVFPVPIDQCIDGGGGGSGGGGSGGGGSKPLDGEYFTLQIRGRERFEMFRELNEALELKDAQAGKEPGGSGGAPEQKLISEEDLGSHHHHHHHHHH	3.81 nM	0.66 nM	6.52e-05 s⁻¹	98700 M⁻¹ s⁻¹	3.81 nM	–	0.1 nM
multimeric protein SEQ ID NO: 43 (designed binder) GVRLWATRQAMLGQVHEVPEGWLIFVAEQEELYVRVQNGFRKVQLEARTPLGGGGSGGGGSGGGGSQDSTSDLIPAPPLSKVPLQQNFQDNQFHGKWYVVGQAGNIRLREDKDPIKMMATIYELKEDKSYDVTMVKFDDKKCMYDIWTFVPGSQPGEFTLGKIKSFPGHTSSLVRVVSTNYNQHAMVFFKFVFQNREEFYITLYGRTKELTSELKENFIRFSKSLGLPENHIVFPVPIDQCIDGGGSGGAPEQKLISEEDLGSHHHHHHHHHH	–	0.39 nM	4.42e-05 s⁻¹	114000 M⁻¹ s⁻¹	–	–	0.16 nM

Reference: patent US20230227568A1 (Pieris, published 2023)
